# Experimental data: patent publication US5656452A, “NF-ATp, ' a T lymphocyte DNA-binding protein” (President and Fellows of Harvard College, priority 1993, dated 1997)
# T1: NF-ATp XS (464-aa recombinant fragment of murine NF-ATp) (Mus musculus, UniProt Q60591 SEQ:226-689)
# T1 chain: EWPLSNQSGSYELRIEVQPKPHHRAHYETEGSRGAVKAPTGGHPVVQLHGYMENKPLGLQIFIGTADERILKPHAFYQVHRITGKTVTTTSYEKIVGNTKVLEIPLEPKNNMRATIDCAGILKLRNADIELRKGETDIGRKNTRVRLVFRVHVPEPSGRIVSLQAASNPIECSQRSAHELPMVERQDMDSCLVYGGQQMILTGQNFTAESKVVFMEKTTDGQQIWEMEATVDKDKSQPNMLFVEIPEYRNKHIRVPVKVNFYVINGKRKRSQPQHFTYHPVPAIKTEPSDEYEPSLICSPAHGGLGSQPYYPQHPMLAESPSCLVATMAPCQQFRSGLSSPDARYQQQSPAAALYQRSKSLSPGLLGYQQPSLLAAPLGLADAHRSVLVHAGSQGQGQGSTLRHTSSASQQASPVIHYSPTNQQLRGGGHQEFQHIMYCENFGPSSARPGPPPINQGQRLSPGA
# T2: NF-ATp (purified from Cl.7W2 T cells) (Mus musculus, UniProt Q60591 SEQ:1-890)
# T2 chain: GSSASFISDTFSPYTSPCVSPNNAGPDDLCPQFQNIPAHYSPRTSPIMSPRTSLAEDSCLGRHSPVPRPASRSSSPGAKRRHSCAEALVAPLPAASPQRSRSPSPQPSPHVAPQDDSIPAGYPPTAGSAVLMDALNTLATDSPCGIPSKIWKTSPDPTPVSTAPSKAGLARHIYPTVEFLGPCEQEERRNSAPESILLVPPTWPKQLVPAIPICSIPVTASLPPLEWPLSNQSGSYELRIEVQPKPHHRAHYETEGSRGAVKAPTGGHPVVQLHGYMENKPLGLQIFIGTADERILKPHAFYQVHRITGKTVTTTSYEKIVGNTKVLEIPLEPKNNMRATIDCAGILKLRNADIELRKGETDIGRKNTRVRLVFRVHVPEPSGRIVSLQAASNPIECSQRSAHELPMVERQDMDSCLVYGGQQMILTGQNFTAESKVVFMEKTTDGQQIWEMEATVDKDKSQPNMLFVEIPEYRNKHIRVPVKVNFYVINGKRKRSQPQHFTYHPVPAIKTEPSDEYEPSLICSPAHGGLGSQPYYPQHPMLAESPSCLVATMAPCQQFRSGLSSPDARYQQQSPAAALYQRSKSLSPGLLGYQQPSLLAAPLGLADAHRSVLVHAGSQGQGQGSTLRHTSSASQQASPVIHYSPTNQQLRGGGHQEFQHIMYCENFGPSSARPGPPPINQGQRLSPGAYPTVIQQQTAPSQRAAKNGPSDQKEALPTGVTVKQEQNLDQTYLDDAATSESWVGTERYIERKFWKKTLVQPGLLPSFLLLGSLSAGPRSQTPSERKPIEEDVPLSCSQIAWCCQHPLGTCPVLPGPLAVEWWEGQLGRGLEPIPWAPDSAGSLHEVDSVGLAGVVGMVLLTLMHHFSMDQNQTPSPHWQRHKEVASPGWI
# Assays:
# [1] = biological target: T1, NF-ATp XS (464-aa recombinant fragment …); assay: competition; 200-fold excess does not compete
# Protocol: (§1) EMSAs were performed using 18 μl of renatured proteins in a 30 μl mix containing 4 mM Hepes, pH 7.4, 84 mM NaCl, 20 mM KCl, 0.08 mM EDTA, 9% glycerol, 0.7 mg/ml BSA, 17 μg/ml poly(dI:dC) and 0.125 ng of ^32P-labelled oligonucleotide. For competition assays, a 200-fold excess of unlabeled oligonucleotide was added to the reaction. The reactions were incubated for 15 minutes at room temperature followed by electrophoresis at 4° C. on 4% Tris/borate/EDTA/acrylamide gels. The NF-AT oligonucleotide used had the sequence GCCCAAAGAG-GAAAATTTGTTTCATACAG (SEQ ID NO:1), corresponding to the distal NF-AT site from the murine IL-2 promoter (nucleotides −295 to −267 relative to the transcription start site, (Serfling, E., Barthelmas, R., Pfeuffer, I., Schenk, B., Zarius, S., Swoboda, R., Mercurio, F., and Karin, M. (1989) *EMBO J.* 8, 465–473)). Oligonucleotides bearing mutations in the NF-AT site were as follows: M1, […] (SEQ ID NO:2); M2, […] […]
# (§2) Figure 12: FIG. 12 is a photograph of an EMSA gel. Binding of a recombinant fragment of NF-AT_p (NF-AT_pXS) to target DNA and association of the recombinant NF-AT_p fragment with Fos and Jun proteins was evaluated. The binding of the recombinant fragment of murine NF-AT_p to the distal NF-AT site of the murine IL-2 promoter was assessed by EMSA in the presence or absence of a 200-fold excess of unlabelled competitor oligonucleotides as shown in Lane 1–5. […]
# NF-ATp XS + c-Jun = NF-ATp XS + c-Jun (UniProt Q60591;P17325 Q60591:400-863,P17325:1-334); assay: EMSA; slower-migrating Jun-Jun-NF-ATp complex; conditions: tags: His6 on NF-ATp XS; full-length c-Jun; label: 32P
# Protocol: (§3) Figure 12: FIG. 12 is a photograph of an EMSA gel. Binding of a recombinant fragment of NF-AT_p (NF-AT_pXS) to target DNA and association of the recombinant NF-AT_p fragment with Fos and Jun proteins was evaluated. The binding of the recombinant fragment of murine NF-AT_p to the distal NF-AT site of the murine IL-2 promoter was assessed by EMSA in the presence or absence of a 200-fold excess of unlabelled competitor oligonucleotides as shown in Lane 1–5. The arrows indicate two DNA-protein complexes formed with NF-AT_pXS. Full-length recombinant c-Fos and c-Jun proteins were included in the same binding reactions, as shown in Lanes 7–9. The open arrows indicate Jun—Jun-NF-AT_pXS complexes, while the closed arrows indicate Fos-Jun-NF-AT_pXS complexes.
# [2] = biological target: NF-ATp XS + c-Fos + c-Jun (UniProt Q60591;P12841;P17325 Q60591:400-863,P12841:1-380,P17325:1-334); assay: EMSA; Fos-Jun-NF-ATp complex; competed by AP-1 oligonucleotide; c-Fos alone does not associate; conditions: tags: His6 on NF-ATp XS; full-length c-Fos and c-Jun; label: 32P
# Protocol: as §3
# [3] = biological target: T1, NF-ATp XS (464-aa recombinant fragment …); assay: EMSA; two complexes; self-competed by 200-fold excess; methylation interference shows GGAA core required; conditions: label: 32P
# Protocol: as §1, §2
# c-Fos + c-Jun = c-Fos + c-Jun (UniProt P12841;P17325 P12841:1-380,P17325:1-334); assay: EMSA; no NF-ATp present; conditions: tags: full-length; label: 32P
# Protocol: as §3
# [4] = biological target: NF-ATp (T cell) + c-Fos + c-Jun (UniProt Q60591;P12841;P17325 Q60591:1-927,P12841:1-380,P17325:1-334); assay: EMSA; upper complex with partially purified NF-ATp; not seen with c-Fos only; conditions: tags: native NF-ATp with recombinant c-Fos and c-Jun; label: 32P
# Protocol: Figure 7: FIG. 7 is a photograph of an EMSA gel showing the results of an EMSA. […] Partially purified NF-AT_p was incubated with labeled oligonucleotide corresponding to the distal NF-AT site of the murine IL-2 promoter, either alone (lanes 1, 7, 13), with full length or truncated (T) recombinantly produced c-Fos and c-Jun proteins (lanes 2–5 and 8–11, respectively) or with an equivalent concentration of bovine serum albumin. Lane 5 contained 50% more c-Fos and c-Jun compared to lane 4. Lanes 11–13 contain half the amount of NF-AT_p compared to lanes 1–10. […] Bound complexes were separated from free probe by EMSA. The position of free probe, of the lower (NF-AT_p) complex and upper (NF-AT_p-Fos-Jun) complex are indicated.
# [5] = biological target: T2, NF-ATp (purified from Cl.7W2 T cells); assay: EMSA; purified 120 kDa protein, renatured from gel; conditions: tags: native; label: 32P
# Protocol: EMSAs were performed using 18 μl of renatured proteins in a 30 μl mix containing 4 mM Hepes, pH 7.4, 84 mM NaCl, 20 mM KCl, 0.08 mM EDTA, 9% glycerol, 0.7 mg/ml BSA, 17 μg/ml poly(dI:dC) and 0.125 ng of ^32P-labelled oligonucleotide. For competition assays, a 200-fold excess of unlabeled oligonucleotide was added to the reaction. The reactions were incubated for 15 minutes at room temperature followed by electrophoresis at 4° C. on 4% Tris/borate/EDTA/acrylamide gels. The NF-AT oligonucleotide used had the sequence GCCCAAAGAG-GAAAATTTGTTTCATACAG (SEQ ID NO:1), corresponding to the distal NF-AT site from the murine IL-2 promoter (nucleotides −295 to −267 relative to the transcription start site, (Serfling, E., Barthelmas, R., Pfeuffer, I., Schenk, B., Zarius, S., Swoboda, R., Mercurio, F., and Karin, M. (1989) *EMBO J.* 8, 465–473)). Oligonucleotides bearing mutations in the NF-AT site were as follows: M1, […] (SEQ ID NO:2); M2, […] (SEQ ID NO:3); M3, […] […]
# Figure 8: FIG. 8 is a photograph of an EMSA gel showing an analysis of NF-AT_p by renaturation of NF-AT_p activity following purification of the protein using SDS-polyacrylamide gel electrophoresis. […] After electrophoresis, the gel was sliced, proteins were eluted from gel slices and renatured, and the fractionated proteins were evaluated in an EMSA for their ability to bind to the NF-AT site of the murine IL-2 promoter.
# [6] = biological target: T1, NF-ATp XS (464-aa recombinant fragment …); assay: competition; 200-fold excess competes as strongly as wild type
# Protocol: as §1, §2
# Chain of NF-ATp XS + c-Jun (P17325 whole entry, the tested form may be a part, one chain of several): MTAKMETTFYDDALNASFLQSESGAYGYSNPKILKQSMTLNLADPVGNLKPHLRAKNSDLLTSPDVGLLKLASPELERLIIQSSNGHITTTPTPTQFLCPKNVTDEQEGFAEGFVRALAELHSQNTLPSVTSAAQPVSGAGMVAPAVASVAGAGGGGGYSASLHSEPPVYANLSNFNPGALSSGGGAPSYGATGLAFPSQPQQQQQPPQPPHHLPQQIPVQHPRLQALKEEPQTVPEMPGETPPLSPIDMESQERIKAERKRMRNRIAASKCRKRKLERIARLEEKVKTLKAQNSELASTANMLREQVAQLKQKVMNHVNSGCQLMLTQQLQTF
# Chain of NF-ATp (T cell) + c-Fos + c-Jun (Q60591 whole entry, chain 1 of 3, the tested form may be a part): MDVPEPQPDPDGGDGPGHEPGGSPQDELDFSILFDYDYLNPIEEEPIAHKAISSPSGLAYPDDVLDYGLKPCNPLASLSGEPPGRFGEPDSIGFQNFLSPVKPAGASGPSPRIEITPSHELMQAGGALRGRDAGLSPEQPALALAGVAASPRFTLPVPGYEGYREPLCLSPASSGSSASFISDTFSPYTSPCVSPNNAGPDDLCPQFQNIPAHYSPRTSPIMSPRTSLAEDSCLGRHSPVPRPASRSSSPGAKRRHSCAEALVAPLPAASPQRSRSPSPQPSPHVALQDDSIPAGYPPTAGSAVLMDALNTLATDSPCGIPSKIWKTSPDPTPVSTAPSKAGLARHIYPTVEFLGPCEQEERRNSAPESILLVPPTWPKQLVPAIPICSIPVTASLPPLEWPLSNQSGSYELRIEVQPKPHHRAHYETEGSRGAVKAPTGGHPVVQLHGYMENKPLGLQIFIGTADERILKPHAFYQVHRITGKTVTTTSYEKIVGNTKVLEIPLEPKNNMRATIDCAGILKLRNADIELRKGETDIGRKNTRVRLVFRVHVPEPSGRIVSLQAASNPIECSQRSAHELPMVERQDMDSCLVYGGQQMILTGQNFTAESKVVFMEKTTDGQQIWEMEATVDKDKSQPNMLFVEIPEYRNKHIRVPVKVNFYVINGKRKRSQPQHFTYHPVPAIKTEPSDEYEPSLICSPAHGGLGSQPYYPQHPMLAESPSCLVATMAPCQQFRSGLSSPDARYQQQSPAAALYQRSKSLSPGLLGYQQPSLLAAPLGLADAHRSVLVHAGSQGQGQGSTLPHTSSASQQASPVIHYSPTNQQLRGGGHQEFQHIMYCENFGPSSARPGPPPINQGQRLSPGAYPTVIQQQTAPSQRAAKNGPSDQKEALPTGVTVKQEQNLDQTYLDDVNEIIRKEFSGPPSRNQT
# Chain of NF-ATp (T cell) + c-Fos + c-Jun (P12841 whole entry, chain 2 of 3, the tested form may be a part): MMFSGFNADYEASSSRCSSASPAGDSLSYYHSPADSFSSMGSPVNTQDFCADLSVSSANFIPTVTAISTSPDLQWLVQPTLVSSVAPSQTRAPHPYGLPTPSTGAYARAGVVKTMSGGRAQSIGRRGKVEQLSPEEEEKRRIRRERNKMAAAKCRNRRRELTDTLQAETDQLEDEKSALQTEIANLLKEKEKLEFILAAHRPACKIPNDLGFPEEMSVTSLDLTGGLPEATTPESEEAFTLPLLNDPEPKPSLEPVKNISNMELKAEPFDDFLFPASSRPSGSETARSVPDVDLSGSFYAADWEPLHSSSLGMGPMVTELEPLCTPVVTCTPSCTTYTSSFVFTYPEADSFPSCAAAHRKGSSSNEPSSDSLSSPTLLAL
# Chain of NF-ATp (T cell) + c-Fos + c-Jun (P17325 whole entry, chain 3 of 3, the tested form may be a part): as the sequence (P17325 whole entry, the tested form may be a part, one chain of several) above
# Chain of c-Fos + c-Jun (P12841 whole entry, chain 1 of 2): as the sequence (P12841 whole entry, chain 2 of 3, the tested form may be a part) above
# Chain of c-Fos + c-Jun (P17325 whole entry, chain 2 of 2): as the sequence (P17325 whole entry, the tested form may be a part, one chain of several) above
# Chain of NF-ATp XS + c-Fos + c-Jun (P12841 whole entry, chain 2 of 2): as the sequence (P12841 whole entry, chain 2 of 3, the tested form may be a part) above
# Chain of NF-ATp XS + c-Fos + c-Jun (P17325 whole entry, chain 3 of 2): as the sequence (P17325 whole entry, the tested form may be a part, one chain of several) above
binder,measurement,setting,value
M3 (dsDNA) DNA 1: GCCCAAAGACCTTAATTTGTTTCATACAG DNA 2: CTGTATGAAACAAATTAAGGTCTTTGGGC,binding result,[1],no binding
"NF-AT oligonucleotide (distal NF-AT site, murine IL-2 promoter) (dsDNA) DNA 1: GCCCAAAGAGGAAAATTTGTTTCATACAG DNA 2: CTGTATGAAACAAATTTTCCTCTTTGGGC",binding result,NF-ATp XS + c-Jun,binds
same,binding result,[2],binds
same,binding result,[3],binds
same,binding result,c-Fos + c-Jun,no binding
same,binding result,[4],binds
same,binding result,[5],binds
M1 (dsDNA) DNA 1: GCCCAAAGAGGAAAATTTGTTTATATCAG DNA 2: CTGATATAAACAAATTTTCCTCTTTGGGC,binding result,[6],binds
